Reference: patent US6884600B1, “Protein phosphatase-1 catalytic subunit interactions” (Medical Research Council London, priority 1996, dated 2005)

Legend:
PP1c = target: T1, PP1c (Oryctolagus cuniculus, UniProt P62143); experiment: MLC20 (myosin P-light chain) phosphatase activity of PP1c; type: biochemical
T1 construct: from tissue; host or cells: rabbit skeletal muscle (PP1G dissociated with LiBr)
Description: A,B; Effects of M110-(M1-E309) (closed circles), M110-(M1-F38) (open circles) and M110-(D39-E309) (open triangles) on the MLC20 phosphatase […] and phosphorylase phosphatase (B) activities of PP1c were measured after incubating PP1c for 15 minutes at 30° C. with each fragment. The results are presented as a percentage of those obtained in experiments where the M110 fragments were omitted.
C,D; The effect of M110-(M1-A150) (open circles) and M110-(L24-Y496) (closed circles) on the MLC20 phosphatase (C) and phosphorylase phosphatase (D) activities of PP1c were measured as in A,B.
(A) The MLC20 phosphatase activity of PP1c was assayed after incubation for 15 minutes at 30° C. in the presence or absence of 1 μM GM-(G63-T93) and either 0.1 μM M110-(M1-F38) or 0.1 nM M110-(M1-E309).
(1-38, open circles) or M110[M1-K35] (1-35, closed circles) were incubated with PP1c for 15 min at 30° C. and reactions started with the ^32P-labelled MLC20 substrate. The results are expressed as a % of the activity determined in control incubations where the M110 peptides were omitted (100%). Similar results were obtained in three separate experiments.
The myosin-associated form of PP1 (PP1M) was from chicken gizzard and the glycogen-associated form of PP1 (PP1G) from rabbit skeletal muscle. The β isoform of PP1c was released from PP1G by incubation for 2 hours in 2M LiBr, then purified by gel-filtration on a 30×1 cm column of Superose 12 (Pharmacia, Milton Keynes, U.K.) in the presence of 0.5M LiBr. Glycogen protein particles from rat liver were used as the source of hepatic PP1G Digoxygenin-labelled PP1c (γ1-isoform, hereafter termed PP1) was prepared as in [9]. GL was expressed in E. coli as a glutathione-S-transferase (GST) fusion protein [7], termed GST-GL. The catalytic subunit of PP2A from bovine heart (PP2AC) was provided by Dr R. MacKintosh in this Unit. The phosphorylatable myosin light chain (MLC20) and heavy meromyosin from chicken gizzard were a gift from Dr M. Ikebe (Case Western Reserve University, Cleveland, USA). Thrombin and benzamidine-Agarose were purchased from Sigma (Poole, UK).
^32P-labelled rabbit skeletal muscle phosphorylase a (containing 1.0 mol phosphate per mol subunit) was prepared by phosphorylation with phosphorylase kinase, ^32P-labelled rabbit skeletal muscle glycogen synthase (containing 1.5 mol/mol subunit in the sites 3 region) was prepared by phosphorylation with glycogen synthase kinase-3 [24]). ^32P-labelled chicken gizzard MLC20 and ^32P-labelled chicken gizzard heavy meromyosin (containing 1.0 mol phosphate per mol subunit) were prepared by phosphorylation with smooth muscle myosin light chain kinase. The dephosphorylation of phosphorylase a (10 μM), glycogen synthase (1 μM) and MLC20 (1 μM) and heavy meromyosin (1 μM) was carried out as in [24]. One unit of activity (U) was that amount which released […] of phosphate in one minute.
PP1c was isolated from the rabbit skeletal muscle PP1-GM complex as described previously (Johnson et al, 1996). Glycogen particles isolated from rat liver (Schelling el al, 1988) served as the source of PP1-GL. The dephosphorylation of glycogen phosphorylase (10 μM) and the isolated MLC20 of smooth muscle myosin (1 μM) by PP1c was carried out as described previously (Cohen et al., 1988; Alessi et al., 1992).
^32P-labelled myosin P-light chains containing 1.0 mol phosphate per mol subunit was prepared by phosphorylation with smooth muscle myosin light chain kinase. The dephosphorylation of myosin P-light chain (1 μM) was carried out as in [4] and one unit of activity (U) was that amount which catalysed the release of 1 μmole of phosphate in one min. When assaying PP1M in immunoprecipitates from the myofibrillar extracts, the tubes were shaken continuously and 3 nM okadaic acid was included to inhibit any PP2A present.

myosin = target: T2, myosin (Gallus gallus, UniProt P10587); experiment: Myosin binding assay (pelleting with myosin); parameters: species or system chicken; settings: myosin 1 μM, 15 min 0° C.
T2 construct: from tissue; host or cells: chicken gizzard
T2 sequence (P10587 whole entry): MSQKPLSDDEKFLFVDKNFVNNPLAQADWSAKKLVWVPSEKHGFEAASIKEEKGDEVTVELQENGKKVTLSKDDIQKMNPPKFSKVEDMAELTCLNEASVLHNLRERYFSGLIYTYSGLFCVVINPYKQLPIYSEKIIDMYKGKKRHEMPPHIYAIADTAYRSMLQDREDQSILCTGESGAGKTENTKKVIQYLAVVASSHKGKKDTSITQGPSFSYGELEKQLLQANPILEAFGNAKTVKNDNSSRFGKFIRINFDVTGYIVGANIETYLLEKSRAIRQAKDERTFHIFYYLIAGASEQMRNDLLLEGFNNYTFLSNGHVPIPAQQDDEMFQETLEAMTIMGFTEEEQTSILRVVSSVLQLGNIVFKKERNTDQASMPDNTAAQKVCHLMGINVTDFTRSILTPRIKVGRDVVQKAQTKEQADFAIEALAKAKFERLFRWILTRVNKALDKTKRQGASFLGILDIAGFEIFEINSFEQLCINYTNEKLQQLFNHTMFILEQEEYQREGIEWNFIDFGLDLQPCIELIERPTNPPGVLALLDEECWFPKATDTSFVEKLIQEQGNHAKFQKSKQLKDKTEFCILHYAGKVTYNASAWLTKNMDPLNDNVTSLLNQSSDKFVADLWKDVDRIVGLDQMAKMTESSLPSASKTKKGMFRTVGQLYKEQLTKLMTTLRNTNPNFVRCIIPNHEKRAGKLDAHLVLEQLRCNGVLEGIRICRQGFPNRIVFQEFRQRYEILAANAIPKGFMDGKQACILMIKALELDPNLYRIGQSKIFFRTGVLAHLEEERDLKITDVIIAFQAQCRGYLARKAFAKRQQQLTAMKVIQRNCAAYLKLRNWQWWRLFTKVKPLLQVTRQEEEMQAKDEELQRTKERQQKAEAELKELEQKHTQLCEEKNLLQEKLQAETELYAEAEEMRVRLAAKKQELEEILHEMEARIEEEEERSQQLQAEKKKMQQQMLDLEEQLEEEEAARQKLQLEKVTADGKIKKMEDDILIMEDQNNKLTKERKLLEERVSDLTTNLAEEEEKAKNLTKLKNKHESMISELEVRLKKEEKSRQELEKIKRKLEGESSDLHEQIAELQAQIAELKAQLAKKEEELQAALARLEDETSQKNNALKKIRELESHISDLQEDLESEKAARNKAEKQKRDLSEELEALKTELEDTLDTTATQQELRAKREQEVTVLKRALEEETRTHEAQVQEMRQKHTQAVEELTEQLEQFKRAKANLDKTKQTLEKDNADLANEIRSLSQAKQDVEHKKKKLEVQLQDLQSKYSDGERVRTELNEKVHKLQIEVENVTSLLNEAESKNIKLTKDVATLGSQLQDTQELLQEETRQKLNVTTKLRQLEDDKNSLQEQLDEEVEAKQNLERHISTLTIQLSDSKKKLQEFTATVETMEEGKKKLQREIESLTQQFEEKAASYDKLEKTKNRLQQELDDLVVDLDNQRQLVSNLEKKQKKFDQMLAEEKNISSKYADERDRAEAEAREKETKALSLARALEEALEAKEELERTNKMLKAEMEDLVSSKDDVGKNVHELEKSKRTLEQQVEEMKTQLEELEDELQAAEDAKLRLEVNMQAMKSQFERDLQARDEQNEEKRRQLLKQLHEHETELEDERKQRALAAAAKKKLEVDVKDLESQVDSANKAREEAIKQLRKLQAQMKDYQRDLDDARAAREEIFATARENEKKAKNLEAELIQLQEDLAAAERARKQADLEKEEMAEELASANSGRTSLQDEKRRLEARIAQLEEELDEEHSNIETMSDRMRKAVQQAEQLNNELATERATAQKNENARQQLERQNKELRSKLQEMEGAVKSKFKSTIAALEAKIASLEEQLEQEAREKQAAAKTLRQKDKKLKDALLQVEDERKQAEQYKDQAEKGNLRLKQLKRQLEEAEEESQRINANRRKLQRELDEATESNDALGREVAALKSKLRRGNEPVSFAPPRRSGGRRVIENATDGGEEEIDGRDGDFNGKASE
T2 sequence (P02612 whole entry partner): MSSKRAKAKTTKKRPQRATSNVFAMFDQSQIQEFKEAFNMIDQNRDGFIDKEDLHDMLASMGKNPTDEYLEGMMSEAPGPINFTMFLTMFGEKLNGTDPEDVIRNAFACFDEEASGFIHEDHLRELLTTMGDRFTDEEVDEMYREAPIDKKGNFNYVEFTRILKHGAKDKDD
T2 sequence (P02607 whole entry partner): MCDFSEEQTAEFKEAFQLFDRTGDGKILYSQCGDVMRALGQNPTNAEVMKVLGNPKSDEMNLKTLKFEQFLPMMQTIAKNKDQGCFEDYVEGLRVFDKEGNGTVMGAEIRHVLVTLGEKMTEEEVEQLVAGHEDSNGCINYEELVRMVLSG
Outline: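 PP1M, PP1c, PP1M(ΔM21) or M110 fragments (30 nM; M110 fragments and M21 at 100 nM) incubated 15 min at 0° C with 1 μM myosin in 10 mM Hepes pH 7.5, 50 mM KCl, 5 mM MgCl2, then centrifuged 2 min at 13,000×g. Supernatant, pellet and total analysed by immunoblot or P-light chain phosphatase activity.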

T1 sequence (P62143 whole entry): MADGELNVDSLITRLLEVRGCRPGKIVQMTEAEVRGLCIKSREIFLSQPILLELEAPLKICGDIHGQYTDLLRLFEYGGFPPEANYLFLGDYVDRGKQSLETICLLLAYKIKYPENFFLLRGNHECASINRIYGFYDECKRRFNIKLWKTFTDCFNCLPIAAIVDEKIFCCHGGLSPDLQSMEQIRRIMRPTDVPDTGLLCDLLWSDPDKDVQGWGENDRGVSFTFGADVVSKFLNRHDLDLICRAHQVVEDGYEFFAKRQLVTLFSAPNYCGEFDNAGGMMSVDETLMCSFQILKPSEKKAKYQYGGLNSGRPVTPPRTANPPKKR

B1: M110-(M1-E309): rat aorta M110 fragment, residues 1-309, released from GST-fusion protein with thrombin (protein)
chain: GSPGMKMADAKQKRNEQLKRWIGSETDLEPPVVKRQKTKVKFDDGAVFLAACSSGDTDEVLKLLHRGADINYANVDGLTALHQACIDDNVDMVKFLVENGANINQPDNEGWIPLHAAASCGYLDIAEFLIGQGAHVGAVNSEGDTPLDIAEEEAMEELLQNEVNRQGVDIEAARKEEERIMLRDARQWLNSGHISDVRHAKSGGTALHVAAAKGYTEVLKLLIQAGYDVNIKDYDGWTPLHAAAHWGKEEACRILVDNLCDMETVNKVGQTAFDVADEDILGYLEELQKKQNLLHSEKRDKKSPLIESTANMEA
For B1, the “concentration required to activate the MLC20 phosphatase activity maximally” value (PP1c) was 0.1 nM, the “increase in PP1c activity towards MLC20 (maximal activation)” value (PP1c) was “about 3 fold” and the binding to myosin (myosin) was “did not bind to myosin”.
